{"source": "patent US20020119572", "proteins": {"B1": {"name": "S-protein of Ribonuclease S (protein)", "chain": "SSSNYCNQMMKSRNLTKDRCKPVNTFVHESLADVQAVCSQKNVACKNGQTNCYQSYSTMSITDCRETGSSKYPNCAYKTTQANKHIIVACEGNPYVPVHFDASV"}}, "target": "T1, gold nanoparticle linked S18 peptide", "T1 chain": "CGGKETAAAKFERQHMDS"}
{"protein": "B1", "values": [{"measurement": "RF power level at 50% RNase S activity (poly C hydrolysis)", "result": -4, "unit": "dBm at the 50% activity"}, {"measurement": "RNase S activity (digested polyC, absorption at 280 nm) with RFMF on and off", "result": "The activity with the RFMF on was less than with the RFMF off"}]}
